Data published in article PMC8642242.

Molecular target: SARS-CoV-2 stabilized S trimer (HexaPro) (SARS-CoV-2)

Substance	IC50 of neutralization of SARS-CoV-2 (IL1/2020) pseudovirus (pSV assay) [ng ml^−1]
WRAIR-2123 (human IgG1) (antibody)	4
WRAIR-2165 (human IgG1) (antibody)	10
WRAIR-2173 (human IgG1) (antibody)	4
